Source: IntAct's records for PubMed 22668317

B1: LPS-assembly protein LptD (Escherichia coli (strain K12)), P31554 (parent)
chain: MKKRIPTLLATMIATALYSQQGLAADLASQCMLGVPSYDRPLVQGDTNDLPVTINADHAKGDYPDDAVFTGSVDIMQGNSRLQADEVQLHQKEAPGQPEPVRTVDALGNVHYDDNQVILKGPKGWANLNTKDTNVWEGDYQMVGRQGRGKADLMKQRGENRYTILDNGSFTSCLPGSDTWSVVGSEIIHDREEQVAEIWNARFKVGPVPIFYSPYLQLPVGDKRRSGFLIPNAKYTTTNYFEFYLPYYWNIAPNMDATITPHYMHRRGNIMWENEFRYLSQAGAGLMELDYLPSDKVYEDEHPNDDSSRRWLFYWNHSGVMDQVWRFNVDYTKVSDPSYFNDFDNKYGSSTDGYATQKFSVGYAVQNFNATVSTKQFQVFSEQNTSSYSAEPQLDVNYYQNDVGPFDTRIYGQAVHFVNTRDDMPEATRVHLEPTINLPLSNNWGSINTEAKLLATHYQQTNLDWYNSRNTTKLDESVNRVMPQFKVDGKMVFERDMEMLAPGYTQTLEPRAQYLYVPYRDQSDIYNYDSSLLQSDYSGLFRDRTYGGLDRIASANQVTTGVTSRIYDDAAVERFNISVGQIYYFTESRTGDDNITWENDDKTGSLVWAGDTYWRISERWGLRGGIQYDTRLDNVATSNSSIEYRRDEDRLVQLNYRYASPEYIQATLPKYYSTAEQYKNGISQVGAVASWPIADRWSIVGAYYYDTNANKQADSMLGVQYSSCCYAIRVGYERKLNGWDNDKQHAVYDNAIGFNIELRGLSSNYGLGTQEMLRSNILPYQNTL
partner: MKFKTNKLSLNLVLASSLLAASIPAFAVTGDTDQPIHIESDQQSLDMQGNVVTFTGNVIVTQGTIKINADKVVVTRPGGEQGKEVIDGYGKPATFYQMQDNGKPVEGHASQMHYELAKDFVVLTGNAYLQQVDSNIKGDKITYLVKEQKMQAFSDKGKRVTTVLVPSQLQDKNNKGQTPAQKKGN

Variants of: B1
Settings: with lpta_ecoli lptA

Row | effect of a mutation on the interaction | Variant
1 | disrupting interaction | C724S;C725S
2 | disrupting interaction | C31S;C725S
3 | disrupting interaction | C31S;C173S
